The results in this text go back to patent US20080221021A1, “Novel Corticotropin-Releasing Factor Receptor 1 (Crfr1) Agonist” (Max-Planck-Gesellschaft Zur Forderung Der, priority 2004, published 2008).

Common to all, as to assay: competition binding
Common to all, as to conditions: modification not given

In test [1] the target is T1, mouse CRFR2β (mouse), Q60748.
T1 chain: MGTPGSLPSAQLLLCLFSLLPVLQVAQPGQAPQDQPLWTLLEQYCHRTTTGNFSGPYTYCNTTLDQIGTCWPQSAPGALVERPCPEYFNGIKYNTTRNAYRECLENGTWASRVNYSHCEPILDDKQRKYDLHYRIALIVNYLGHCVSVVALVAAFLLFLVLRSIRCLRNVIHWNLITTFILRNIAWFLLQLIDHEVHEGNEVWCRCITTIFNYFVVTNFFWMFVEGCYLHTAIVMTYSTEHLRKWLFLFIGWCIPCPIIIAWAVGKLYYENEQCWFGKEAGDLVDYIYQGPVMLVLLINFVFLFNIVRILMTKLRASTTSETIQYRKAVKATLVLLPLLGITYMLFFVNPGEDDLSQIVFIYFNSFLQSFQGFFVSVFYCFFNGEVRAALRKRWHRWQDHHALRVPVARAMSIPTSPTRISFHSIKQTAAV

The next test has as its target T2, rat CRFR1α (rat), P35353.
T2 chain: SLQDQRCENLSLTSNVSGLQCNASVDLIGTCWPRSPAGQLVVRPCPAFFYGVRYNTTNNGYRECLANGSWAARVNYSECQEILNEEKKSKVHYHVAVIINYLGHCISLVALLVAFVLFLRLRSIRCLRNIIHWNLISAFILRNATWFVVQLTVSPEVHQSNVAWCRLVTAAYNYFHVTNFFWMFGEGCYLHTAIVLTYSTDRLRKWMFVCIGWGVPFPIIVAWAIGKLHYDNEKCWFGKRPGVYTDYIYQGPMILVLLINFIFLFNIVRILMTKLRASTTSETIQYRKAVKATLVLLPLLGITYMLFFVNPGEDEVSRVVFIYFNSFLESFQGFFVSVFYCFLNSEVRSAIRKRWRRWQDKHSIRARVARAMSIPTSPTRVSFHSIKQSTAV

Test [2] concerns the target T3, rat CRFBP C-terminally fused with a His6 sequence (rat), P24388.
T3 chain: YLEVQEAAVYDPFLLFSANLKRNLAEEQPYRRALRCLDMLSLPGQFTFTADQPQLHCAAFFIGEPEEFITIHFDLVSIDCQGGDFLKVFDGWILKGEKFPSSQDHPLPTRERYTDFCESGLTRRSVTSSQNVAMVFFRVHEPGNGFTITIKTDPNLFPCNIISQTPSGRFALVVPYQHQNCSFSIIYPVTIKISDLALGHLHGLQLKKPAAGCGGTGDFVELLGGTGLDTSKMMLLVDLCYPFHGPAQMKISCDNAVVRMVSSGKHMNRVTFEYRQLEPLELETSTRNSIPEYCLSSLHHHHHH

What is called IC50 is the point on the concentration scale where inhibition reaches its midpoint. The low end stands for higher potency, the high end for lower potency. On to SQEPPISLDLTFHLLREVLEMTKADQLAQQAHSNRKLLDIA [ovine corticotropin-releasing factor], for which the IC50 in test [1] was 160 nM; with rat CRFR1α (rat), P35353 it was 1.8 nM; in test [2], 450 nM.
